In a protein production outcome set (Wang et al. 2014):

Test: label from the status in PepcDB records

Sequence | protein production
MIQCEECLCWQHSVCMGLLEESIPEQYICYICRDPPGQRWSAKYRYDKEWLNNGRMCGLSFFKENYSHLNAKKIVSTHHLLADVYGVTEVLHGLQLKIGILKNKHHPDLHLWACSGKRKDQDQIIAGVEKKIAQDTVNREEKKYVQNHKEPPRLPLKMEGTYITSEHSYQKPQSFGQDCKSLADPGSSDDDDVSSLEEEQEFHMRSKNSLQYSAKEHGMPEKNPAEGNTVFVYNDKKGTEDPGDSHLQWQLNLLTHIENVQNEVTSRMDLIEKEVDVLESWLDFTGELEPPDPLARLPQLKRHIKQLLIDMGKVQQIATLCSV | not failed
MSLTLDELDSHLFKCADIIRDAVDPTDYKEYILPLVFYKAISDEYEQEREEIVEEYGEDFADNANLYDVPIVPEGHRWNDLRQESENVDEAINNAFTEFTQANPDLSGIFNANFMEAGGLTDDRLIKLVEHLSTYDLDRDSVPPDMLGEAYMDLVRHFAEEEGKSGGQFFTPPHIVQLCVRLVDDFADGMTFHDPTVGSGGMLTEAAKYYREAQGGDPSKLTFTGQEINPDIAAIARMNLSLHTLNGEIERGDSLASPGFTDGDDLERFDRVLANFPFSADWAKDDLQDDQYGRFDWHTKLPRADRGDYAFIMHIAEQLKEPDCGDESGGKAAIVIPHGVLFRKHEQRYRQPMLENDLVEAIVGLPENLFQNNSIPSAILVLNTDKPADREGEVQFIHAADEAFYEELSNQNELTDDGLDHIVENFDDWTTEERVSRTVGIEEIEENDFNLNIALYVDTTEPEEDIDVNEELAELRELQAEREEIESRMTEHMEALQYE | failed
MLSRIDLYIKHRDIFLKHLELLHKLIEKVEDSSLNESELLNARLVDDMFPFNVQAKIATNFALRACCPLSGKEYKELEGDIDSFCGLKTYVVTAIDYINKLSEPTLEQLNLNVQDTAGFKEISMPASEYMSSFVLPNFFFHISMVYAIAKNNGVSVTKGDFDGIHQYPKGFSWEA | not failed
MIGLNTAAIYILQTLGSLYLLIVLLRFILQLVRADFYNPLSQFIVRATKPLLNPLRRIIPGFGGIDLASLVLAILIQLVLMILILMLMGYGVGGFIMQLLIWSIIAVTSLFLKVFFFALIISVILSWVAPGSYNPGAQLVNQICEPLLMPFRKLLPNLGGLDLSPIFAFLALKLIDMLVINNLAAMTGMPQQLSIFL | failed
MDALVEDDICILNHEKAHKRDTVTPVSIYSGDESVASHFALVTAYEDIKKRLKDSEKENSLLKKRIRFLEEKLIARFEEETSSVGREQVNKAYHAYREVCIDRDNLKSKLDKMNKDNSESLKVLNEQLQSKEVELLQLRTEVETQQVMRNLNPPSSNWEVEKLSCDLKIHGLEQELELMRKECSDLKIELQKAKQTDPYQEDNLKSRDLQKLSISSDNMQHAYWELKREMSNLHLVTQVQAELLRKLKTSTAIKKGKSLFTGNH | not failed
MRRCCGDLAASRGGCEPASRNLTRTRLTFAALGRINRPAEHDREDAMTRQEARDHEPRDQDAALSRRTLVRGLALGAAATMAGPALAQTGPAAPPTTITTPPRDFGPNGAPTTYFWDPDIIAVDPSFDDLAQPNTAIKRLYTGVLWAEGPAWSAQGRYLLWSDIPNNRQMRWSEDDGRISVFRSPSNNSNGNSFDFQGRQLSCEHLTRRVTRYEHDGTATVLCDNYNGKKLNSPNDVVAHPDGSYWFTDPPYGGQLYEGEPDAAGGPSNSGGKLNPRIGQPAGFTPGKRELPTNCYRIDPSGRVDLVVTEEQVPDPNGLCFSPDFKKLYVVSTGKGPGDSGPGGKGEIFVFDVGADNKLSNQKRFSDCTIDGVKCGPDGVRCDVNGNVWASSNAGRAVGYSGVTVWSPEGKLLGRIRLPEVCGNICFGGPKRNRLFMAASQSLYAVFTATQGAGPG | failed
MSFRVSASSSVKPEKDIRIGLLGASGYTGAEIVRLLANHPHFQVTLMTADRKAGQSMESVFPHLRAQKLPTLVSVKDADFSTVDAVFCCLPHGTTQEIIKELPTALKIVDLSADFRLRNIAEYEEWYGQPHKAVELQKEVVYGLTEILREDIKKARLVANPGCYPTTIQLPLVPLLKANLIKHENIIIDAKSGVSGAGRGAKEANLYSEIAEGISSYGVTRHRHVPEIEQGLSDVAQSKVTVSFTPHLMPMIRGMQSTIYVEMAPGVRTEDLHQQLKTSYEDEEFVKVLDEGVVPRTHNVRGSNYCHMSVFPDRIPGRAIIISVIDNLVKGASGQALQNLNIMLGYPETTGLLHQPLFP | failed
MKTFHLTTQSRDEMVDITSQIETWIRETGVTNGVAIVSSLHTTAGITVNENADPDVKRDMIMRLDEVYPWHHENDRHMEGNTAAHLKTSTVGHAQTLIISEGRLVLGTWQGVYFCEFDGPRTNRKFVVKLLTD | not failed
MDLTKQFPRSPVDRLGGMDHLKRVIDKARAHVAGTLGEYTYNCPLDQAFFSFFGLDHEKFAEAVKSRPQDQDMLAWVHSQSPRSKNPKEVESFNREYESRSPDSPEKWDYFRSVRDSLAPGRTDITTWVKLLDLEEKRPV | not failed
MSLSGTDIHTSDYYFLFEEKFRGSRELVKARLRRYIPYFKGCRRVLDIGCGRGEFLELCKEEGIESIGVDINEDMIKFCEGKFNVVKSDAIEYLKSLPDKYLDGVMISHFVEHLDPERLFELLSLCYSKMKYSSYIVIESPNPTSLYSLINFYIDPTHKKPVHPETLKFILEYLGFRDVKIEFFEECEELTKLAKIDSNTVSEEVIRVINENIEKLNRILFGPQDYAIIAKKEGHHHHHH | not failed
MEEVLPNVYLIDTLKYVEPGVISAYAVVHERAAIIDPGTAKGAEIILDEIDRSWNVEYICPTHIHIDHGGGAARLAKALDAKIIVHPRGVKHVVNPEKLWEASKAVLGEVAEIYGKPESIDESKVIAVEDEQEFDLGGERLKVFHAPGHAPHMLVYYLTNSKVLFPADAVGMCFGGVVFPLTPPPFDADAALKTLKRLKGLKVDYVAFTHYGVVEGDWPIAKSYEKVKSWLEIAKEVANANGTVEEFVGRLRKEDEDVEKLFNVLGSKPVALSFIYTSATGMLDAARRMIE | failed
MPIELRRLRALRLAWGVALCLAVSFGIGLPVPILAPVFAVLLLAMRSQPLPLRAAPALALLVLLACGSGLLLIPLLRHAPLAGVLLVGVGVFLTLRYALKGGNGLLANLLVVGLTMIAAAGTSDFTLALSVVEALAKGMLLAVLGTSVVHTLFPEPANAPAPPVPPLLGSEHVSWVALRATLIVMPAFLLALIAPDQYMPLIMKAVSVGQQAGETRARHASRELIGSTLLAGVLAIALWVALSLFVHLWMFFLWVLLFALWQARRLYQAVPSRQSPAYWVSCLTTMLILLGQSVQDSAGGQDVYKAFAVRMALFLAVSVYASAMLIWIDRLRSRRGLLRG | failed
MASYYEILDVPRSASADDIKKAYRRKALQWHPDKNPDNKEFAEKKFKEVAEAYEVLSDKHKREIYDRYGREGLTGTGTGPSRAEAGSGGPGFTFTFRSPEEVFREFFGSGDPFAELFDDLGPFSELQNRGSRHSGPFFTFSSSFPGHSDFSSSSFSFSPGAGAFRSVSTSTTFVQGRRITTRRIMENGQERVEVEEDGQLKSVTINGVPDDLALGLELSRREQQPSVTSRSGGTQVQQTPASCPLDSDLSEDEDLQLAMAYSLSEMEAAGKKPAGGREAQHRRQGRPKAQHQDPGLGGTQEGARGEATKRSPSPEEKASRCLIL | not failed
MTAIPRAPLILGLAGLIPFLWGALTYLSPAAQAWGAAALGPRFVGPYVQIAYGQIILAFMSGVLWGFATKADDRRAATGYVLAVLPALWAFFMTGGGPTGAAINLIFGFLGLLMLDAAFASWGLAPVWWMRLRLLLTAVVTICLAVGAFL | failed
MNIQAIDTRHGTANQHSFSNGNCLPYTGVPFGMNFYAPQTTDQKGSWWFHPEDRTFQGYRVTHQPSPWMGDFSHLLMTPVSGSLSELSLFHAQSSYRPEESLFSPVEINLTQLRYQITSQLIPSMYGGILTIDYQQKDNHLLLTLPGRYQVKQLDDHQVAVKVINYSGCEDPDFSFYFVLHFEQPLTKWFAPSSGLEHHHHHH | failed
DRSRLQCYSEDVTEYRKMEQGLNDLHHRLQAYREYSATGFLLVDARTKTVVEANSAFCQLLGYEESEVLDFTLYQLIAAERPVIEELLINLETQNYLSVPELEYRNREGQTVQVKGEVYRLPWEDREVYCFVMRT | failed
MTRRTAFFFDELCLWHAAGPHALTLPVGGWVQPPAAAGHAESPETKRRLKSLLDVSGLTARLQLRSAPPASDEDLLRVHPAHYLERFKALSDAGGGSLGQDAPIGPGSYEIARLSAGLAIAALDAVLAGEADNAYSLSRPPGHHCLPDQAMGFCFFANIAVAIEAAKARHGVERVAVLDWDVHHGNGTQAIYYRRDDVLSISLHQDGCFPPGYSGAEDIGEDRGRGFNLNVPLLPGGGHDAYMQAMQRIVLPALERFRPQLIVVASGFDANAVDPLARMQLHSDSFRAMTAMVRDAAERHAGGRLVVVHEGGYSEAYVPFCGLAVIEELSGVRSAVRDPLRDFIELQQPNAAFRDFQRQRLEELAAQFGLCPAQPLQAAR | failed
MTMETVESQHDGSITASLTESKSAHVQTQTGQNSIPALAQVAAIAETDESAESGGVIDSHKRREILSRRPSYRKILNELSSDVPGVPKIEEERSEEEGTPPSIATMAVPTSIYQTSTGQYIAIAQGGTIQISNPGSDGVQGLQALTMTNSGAPPPGATIVQYAAQSADGTQQFFVPGSQVVVQAATGDMPTYQIRAPTAALPQGVVMAASPGSLHSPQQLAEEATRKRELRLMKNREAAKECRRRKKE | not failed
MLPASNGSVSLPQPKEWENGCRLGFIHMAAKGIVQVISAQVLSGTTLTLGWLGYVPLLIWAVSRVRWVELFTDRRRQHLLFGTVFCLFALWLVRRDFDTGVSYHFIGMTAVTLLLDWPLAVLGGFMAQLGLLALGRQDLAALGVNGLMLIGLPVLITEVCAIVVERAQPRNLFVYIFCSGFFPAALTVLVCVPAALGVLWLDGRFALPEWLSDFVGYLWLMMFPEAFINGMVISALVVFCPEWLETFNRTRYLQAPWKEDER | failed
MKPSQWTLRWVTLCGCGMLAASAAAVELPGTVQPSQLDERFKPRSEPQAKPEAPLVVPKQVAPQGSEQIRFKLREIRIEGNTRYDKAVLESYYQHMLGEQVSLAELVDLANRLTAKYRQDGFLLTQVVVPEQSIEGGKVRLQVIEGYLEHVQIKGTVDGPRVRVEELLAPLTEKRPLDADTLERGLLLVGDLPGVNVQSVLSPGQALGSSNLDVALQQQRYEGFVSLDNRGSHYTDPTTLAFGATEFSRLGFYEQIDVLGAISPFSDATRYIQLRGTLPLGGMFAGDTLQIMGSYSKVNPDIPDSVFPFDSVSKSTEGSISYNHPFIRSRSQNLSGGLALQWKDTETRLRDFASDASNPGRDHVRVFQQRLTYDWVDRWMGINLAEVRNNIGLDMWGATKKDDERRSREVADGRFVYLNGNIGRLQGLGGPWSVYGELQWQYSFDPLLPSERFGVGGSGIGRGFAPGNITGDRGFALKLEPRYGQAVGYSWLRSYQAYAFYDWGKTYNLDVDDDEQQKLGSIGAGVRFNLTDQLSFNPEIARQVIGEPADQRDGKRETRVLFNVVARF | failed
MSETVTQVNETTQQIVRSRTCGLKDFYIALVQSNTATAYTAGTPVKLARAIKAKIDEKWTSEKIYSDDNTEEVITSYEGTDVELEINALAPQDRVILFGQLYEKGFLRKSSDDRAPEVAVGWRERKLNGKYEFKWLYVGKFAEGISEEASTLEHHHHHH | not failed
